For the test, the target named is B-lymphocyte antigen CD20 (UniProt P11836). The experiment in a line: direct binding of I-125 labeled antibody.
UniProt P11836, sequence (P11836 whole entry): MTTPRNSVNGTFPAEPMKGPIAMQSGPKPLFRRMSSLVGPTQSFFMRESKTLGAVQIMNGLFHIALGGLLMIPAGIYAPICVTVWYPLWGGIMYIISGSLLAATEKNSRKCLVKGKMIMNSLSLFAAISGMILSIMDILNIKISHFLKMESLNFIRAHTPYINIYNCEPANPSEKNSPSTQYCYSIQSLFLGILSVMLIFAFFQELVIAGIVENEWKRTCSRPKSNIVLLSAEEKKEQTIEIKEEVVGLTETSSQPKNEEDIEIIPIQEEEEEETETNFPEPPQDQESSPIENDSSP

On to anti-CD20 monoclonal antibody 2B8, for which the apparent affinity constant (Kap) was 3.5 nM.

The record behind these values is patent US20160017341A1.
